Bridge positions count the residues as written; N and C are the ends. Ends that are not written are not given here.

The target of experiment [1] is T1, bovine serum albumin (bovine, UniProt P02769 25-607).
T1 construct: Control protein coated on wells; also called BSA
In words: FITC-labeled peptide added for 30 min to BSA-coated wells, fluorescence plate reader. The procedure:
FIG. 7 is a graph illustrating binding of Fluorescein (FITC)—labeled ALOS peptides to purified Integrin αvβ3, collagen (CG) and bovine serum albumin (BSA). Peptides (concentrations 100 uM, 30 uM, 10 uM, luM) were added to integrin pre-coated wells for 30 min. The fluorescence was measured using Enspire plate reader (PerkinElmer). The plots were built using nonlinear regression analysis (GraphPad Prism).
Binding assay: The binding of peptides to immobilized purified integrin alpha-v-beta3 was evaluated using a fluorescein (FITC) labeled peptides. Purified integrin alpha-v-beta3 was first immobilized onto high-protein binding 96-well plates for 2 hour at 37° C. followed by blocking for two hours with 5% fat dry milk in TBS. After that, plates were washed four times with 200 μl TBS. a) For saturation assays plates were incubated with 100 μl of FITC-labeled peptides solutions in 0.01% BSA in Saline for 30 min at RT. B) For competition assays plates were incubated with different concentrations of unlabeled peptides for 30 min in RT followed by addition of fixed concentration of FITC-labeled peptides and additional incubation for 30 min. Wells were washed twice with TBS. After second wash 100 μl of TBS was added to the each well and fluorescence signal was read at excitation 490 nm and emission 525 nm using Enspire Plate reader (PerkinElmer). Binding data analysis was performed using Prism software (GraphPad Software, San Diego, Calif.). Binding curves were fit using nonlinear regression approaches.

In experiment [2] the target is T2, purified Integrin αvβ3 (UniProt P06756 31-992; P05106 27-718, limits assumed).
T2 construct: Purified integrin coated on 96-well plates; also called integrin alpha-v-beta3; αVβ3 integrin
In words: competitive homologous binding: varied unlabeled ALOS4 against 10 µM ALOS4-FITC on αvβ3-coated wells; competitive homologous binding, unlabeled ALOS4 against 10 µM ALOS4-FITC (panel D). The procedure:
(§1) FIGS. 12A-12D illustrate selective binding of ALOS4 to αvβ3. (A) ALOS4-FITC binding in wells pre-coated with integrin αvβ3. […] (B) ALOS4-FITC binding in wells coated with collagen or BSA. (C) Binding of random, FTIC-labeled cyclic peptide controls (DPDFP and DSLFP) in wells pre-coated with integrin αvβ3. (D) Competitive homologous binding of ALOS4 to αvβ3 integrin. 10 μM of ALOS4-FITC peptide was incubated with different concentrations of unlabeled ALOS4 on wells pre-coated with αvβ3. […] Data are expressed as percent reduction of maximal fluorescence signal.
(§2) Binding assay: The binding of peptides to immobilized purified integrin alpha-v-beta3 was evaluated using a fluorescein (FITC) labeled peptides. Purified integrin alpha-v-beta3 was first immobilized onto high-protein binding 96-well plates for 2 hour at 37° C. followed by blocking for two hours with 5% fat dry milk in TBS. After that, plates were washed four times with 200 μl TBS. a) For saturation assays plates were incubated with 100 μl of FITC-labeled peptides solutions in 0.01% BSA in Saline for 30 min at RT. […] After second wash 100 μl of TBS was added to the each well and fluorescence signal was read at excitation 490 nm and emission 525 nm using Enspire Plate reader (PerkinElmer). […]

For experiment [3], the target named is T1, bovine serum albumin. In words: ALOS4-FITC in wells coated with BSA, % of total binding. The procedure:
as §1, §2

Experiment [4] concerns the target T2, purified Integrin αvβ3. As to the kind of experiment: saturation binding: ALOS4-FITC in wells pre-coated with integrin αvβ3, % of total binding. The procedure:
as §1, §2

The target in experiment [5] is T2, purified Integrin αvβ3. As to the kind of experiment: saturation binding of ALOS4-FITC in wells pre-coated with integrin αvβ3, fluorescence, nonlinear regression; direct saturation binding of ALOS4-FITC on αvβ3-coated wells (panel A). The procedure: as §1, §2
The target in experiment [6] is T1, bovine serum albumin. In words: FITC-peptide saturation binding on coated wells, fluorescence plate reader.

T2 sequence (P06756 31-992 limits assumed, chain 1 of 2): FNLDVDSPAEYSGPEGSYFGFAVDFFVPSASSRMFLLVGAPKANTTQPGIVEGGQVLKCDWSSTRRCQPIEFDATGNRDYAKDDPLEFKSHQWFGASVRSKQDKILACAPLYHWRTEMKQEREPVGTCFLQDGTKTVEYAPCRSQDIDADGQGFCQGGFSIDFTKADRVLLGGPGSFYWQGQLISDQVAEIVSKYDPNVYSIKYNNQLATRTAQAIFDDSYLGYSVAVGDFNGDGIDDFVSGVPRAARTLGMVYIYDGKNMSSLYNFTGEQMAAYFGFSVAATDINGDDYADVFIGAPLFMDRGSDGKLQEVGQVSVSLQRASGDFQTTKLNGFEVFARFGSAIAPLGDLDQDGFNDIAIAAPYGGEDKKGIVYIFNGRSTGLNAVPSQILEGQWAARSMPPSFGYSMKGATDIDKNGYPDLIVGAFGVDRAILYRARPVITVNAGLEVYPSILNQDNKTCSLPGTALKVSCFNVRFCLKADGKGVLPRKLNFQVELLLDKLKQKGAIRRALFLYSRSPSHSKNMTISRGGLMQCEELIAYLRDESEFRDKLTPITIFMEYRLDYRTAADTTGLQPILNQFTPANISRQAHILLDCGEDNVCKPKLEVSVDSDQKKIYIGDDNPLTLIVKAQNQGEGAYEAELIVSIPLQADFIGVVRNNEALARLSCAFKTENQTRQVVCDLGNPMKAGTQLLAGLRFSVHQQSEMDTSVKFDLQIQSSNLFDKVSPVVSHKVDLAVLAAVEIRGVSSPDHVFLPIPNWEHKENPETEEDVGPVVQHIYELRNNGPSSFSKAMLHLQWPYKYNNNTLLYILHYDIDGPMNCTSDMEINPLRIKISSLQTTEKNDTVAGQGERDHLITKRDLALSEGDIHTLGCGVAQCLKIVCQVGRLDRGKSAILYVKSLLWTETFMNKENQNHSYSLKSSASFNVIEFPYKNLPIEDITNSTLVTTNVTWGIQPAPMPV
T2 sequence (P05106 27-718 limits assumed, chain 2 of 2): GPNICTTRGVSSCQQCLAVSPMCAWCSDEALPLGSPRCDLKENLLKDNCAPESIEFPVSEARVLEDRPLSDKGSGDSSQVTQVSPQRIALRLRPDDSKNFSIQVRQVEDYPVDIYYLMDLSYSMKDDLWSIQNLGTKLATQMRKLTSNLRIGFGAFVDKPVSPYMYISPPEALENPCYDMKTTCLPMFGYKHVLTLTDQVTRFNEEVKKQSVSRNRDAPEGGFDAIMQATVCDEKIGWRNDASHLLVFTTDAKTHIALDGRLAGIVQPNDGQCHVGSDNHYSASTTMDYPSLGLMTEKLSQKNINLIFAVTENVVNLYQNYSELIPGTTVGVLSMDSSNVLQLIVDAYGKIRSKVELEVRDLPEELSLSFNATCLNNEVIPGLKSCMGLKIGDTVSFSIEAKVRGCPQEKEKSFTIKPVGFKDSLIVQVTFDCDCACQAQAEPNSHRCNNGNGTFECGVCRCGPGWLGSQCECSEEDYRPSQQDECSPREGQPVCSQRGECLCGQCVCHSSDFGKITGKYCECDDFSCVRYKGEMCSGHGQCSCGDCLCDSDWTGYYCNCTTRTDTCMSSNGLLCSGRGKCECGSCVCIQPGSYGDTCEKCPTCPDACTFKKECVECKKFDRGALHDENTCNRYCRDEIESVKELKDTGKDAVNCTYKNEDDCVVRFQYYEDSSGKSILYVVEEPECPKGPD
T1 sequence (P02769 25-607 limits assumed): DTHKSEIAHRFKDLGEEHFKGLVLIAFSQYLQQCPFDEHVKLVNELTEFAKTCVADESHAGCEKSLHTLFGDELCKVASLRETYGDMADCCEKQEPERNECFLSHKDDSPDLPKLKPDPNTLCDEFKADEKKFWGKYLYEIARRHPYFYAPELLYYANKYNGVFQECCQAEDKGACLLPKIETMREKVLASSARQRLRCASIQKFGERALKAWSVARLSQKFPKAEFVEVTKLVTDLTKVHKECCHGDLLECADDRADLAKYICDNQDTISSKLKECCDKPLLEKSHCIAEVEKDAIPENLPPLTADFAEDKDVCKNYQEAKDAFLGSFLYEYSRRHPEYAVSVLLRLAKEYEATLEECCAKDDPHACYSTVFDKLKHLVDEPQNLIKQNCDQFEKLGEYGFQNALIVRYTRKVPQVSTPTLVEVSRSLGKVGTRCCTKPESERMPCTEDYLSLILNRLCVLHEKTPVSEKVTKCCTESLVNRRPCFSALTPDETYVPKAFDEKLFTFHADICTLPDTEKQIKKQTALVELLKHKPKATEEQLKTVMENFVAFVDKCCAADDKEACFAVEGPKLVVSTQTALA

B1: ALOS-1, fluorescein (FITC)-labeled (peptide)
peptide: CNLSSSWIC
modifications: not fully specified (bridges); cysteine pairing not given here; also: FITC label, position not given here
notes: Synthetic peptide from the phage display screen; also called ALOS peptides; ALOSs
Regarding B1, the binding result with bovine serum albumin [1] is given as “no binding (tested: 100 µM)”. In general, Kd refers to the constant that tells how readily two partners part at equilibrium. Consider CSSAGSLFC (disulfide 1-9 (inferred), Its concentration was varied) [unlabeled ALOS4], for which the Kd with purified Integrin αvβ3 [2] was determined as 2550 nM.

B2: ALOS-4, fluorescein (FITC)-labeled (peptide)
peptide: CSSAGSLFC
modifications: disulfide 1-9 (inferred); also: FITC label, position not given here
notes: Synthetic peptide from the phage display screen; also called ALOS4-FITC; ALOS peptides
A word on the EC50 (read off the curve): it is the midpoint of the concentration-response curve. As to B2, in the experiment with bovine serum albumin [3], the binding result is reported as “no binding (tested: 100 µM)”. For the same molecule, in the experiment with purified Integrin αvβ3 [4], the “EC50 (read off the curve)” value was roughly 200 nM. Besides, the Kd in the experiment with purified Integrin αvβ3 [5] is 192 nM.

B3: ALOS-2, fluorescein (FITC)-labeled (peptide)
peptide: CPPSNHLLC
modifications: not fully specified (bridges); cysteine pairing not given here; also: FITC label, position not given here
notes: as for B1
For the molecule B3, the binding result in the experiment with bovine serum albumin [1] is listed as “no binding (tested: 100 µM)”.

B4: ALOS-3, fluorescein (FITC)-labeled (peptide)
peptide: CAPSPSRLC
modifications: not fully specified (bridges); cysteine pairing not given here; also: FITC label, position not given here
notes: as for B1
Turning to B4, the binding result with bovine serum albumin [1] was “no binding (tested: 100 µM)”.

B5: ALOS-5, fluorescein (FITC)-labeled (peptide)
peptide: CPLHARLPC
modifications: not fully specified (bridges); cysteine pairing not given here; also: FITC label, position not given here
notes: as for B1
Take B5: the binding result with bovine serum albumin [6] is “no binding”.

The values are drawn from patent US20190194253A1 (ARIEL UNIVERSITY RESEARCH AND DEVELOPMENT, published 2019).
